# Target: T1, vascular endothelial growth factor receptor 2 (UniProt P35968 20-764)
# T1 construct: VEGFR2 (vascular endothelial growth factor receptor 2); probably a bought recombinant protein (surmise); also called VEGFR2; VEGFR-2
# Assay: SPR; Biacore S200; ASP-3 immobilised on a CM5 chip (NHS/EDC activation); VEGFR2 at 100, 50, 25, 12.5, 6.25 and 3.125 nM flowed over for 180 s at 10 μL/min; running buffer HBS-EP+; reference channel subtracted
# Conditions: both partners purified
# T1 sequence (P35968 20-764): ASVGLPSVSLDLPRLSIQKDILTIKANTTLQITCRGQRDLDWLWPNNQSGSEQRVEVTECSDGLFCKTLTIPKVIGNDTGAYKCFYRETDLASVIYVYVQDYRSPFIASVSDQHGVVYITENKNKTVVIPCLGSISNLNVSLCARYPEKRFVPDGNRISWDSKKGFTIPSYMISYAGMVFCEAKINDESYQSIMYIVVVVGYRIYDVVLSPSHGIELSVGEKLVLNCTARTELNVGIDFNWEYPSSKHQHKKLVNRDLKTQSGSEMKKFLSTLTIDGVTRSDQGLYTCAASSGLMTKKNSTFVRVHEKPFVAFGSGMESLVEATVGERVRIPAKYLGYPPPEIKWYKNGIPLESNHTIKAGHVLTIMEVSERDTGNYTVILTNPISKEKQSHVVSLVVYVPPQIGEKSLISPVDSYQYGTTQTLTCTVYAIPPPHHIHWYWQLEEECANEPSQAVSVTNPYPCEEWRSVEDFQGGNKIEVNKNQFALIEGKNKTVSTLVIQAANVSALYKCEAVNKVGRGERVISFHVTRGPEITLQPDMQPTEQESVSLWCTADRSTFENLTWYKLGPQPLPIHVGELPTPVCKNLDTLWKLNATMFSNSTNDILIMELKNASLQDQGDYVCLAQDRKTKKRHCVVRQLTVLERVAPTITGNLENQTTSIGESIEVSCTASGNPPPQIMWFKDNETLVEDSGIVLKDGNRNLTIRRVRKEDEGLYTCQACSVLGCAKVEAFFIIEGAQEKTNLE
binder,measurement,value
"ASP-3 (natural protein, Arca subcrenata, ASP-3, Arca subcrenata Lischke, 179 amino acids, 20.6 kDa; Native protein isolated from the animal; also called Arca subcrenata protein; cds.c115914_g1_i1) MDYLTSKWKLWFHSLDVNHDGKISFEDVEESRNKFTDLHKLLGDKASGVKVDMESWWNTYIFKASGGGELSEEMFIKSNTDRYNKDKAAFLNDIQKCFNMIFDVIDTNKDRSIELNEFIYAFKAFGHENEGLVTKAFELLEPKEGLVPLRDIVNAWVSFVTSTDQSKPDAIKQAFDAGF",Kd,39.9 nM

# From publication PMC6780846, “Identification and Characterization of a Novel Protein ASP-3 Purified from Arca subcrenata and Its Antitumor Mechanism” (Marine Drugs, 2019)
